This passage reports stoichiometry N results from PMC7404976.

This assay concerns the target MBP-Vip3Aa11(200-end), the C-terminal fragment of Vip3A toxin with an N-terminal 6xHis-MBP tag (Bacillus thuringiensis strain C9). Description: crystal structure; MBP-Vip3Aa(200-end) 7 mg/mL, hanging drop at 18 °C, 0.1 M sodium acetate pH 4.2, 0.5 M potassium formate, 0.1 M ammonium sulfate, 11% PEG4000; space group P21, four molecules in one asymmetric unit, 3.2 Å.

Substance “MBP-Vip3Aa11(200-end), the C-terminal fragment of Vip3A toxin with an N-terminal 6xHis-MBP tag (domain or fragment)” registered a stoichiometry N of 2.
